From patent US20040259795A1

Experiments:
[1] = target: soluble recombinant human CD14 (rHu-LAIT) (human) (UniProt P08571); assay: cell-based or functional assay
[2] = target: soluble recombinant bovine CD14 (rBo-LAIT) (bovine) (UniProt Q95122); assay: cell-based or functional assay
UniProt Q95122, sequence (Q95122 21-373 S209T limits assumed): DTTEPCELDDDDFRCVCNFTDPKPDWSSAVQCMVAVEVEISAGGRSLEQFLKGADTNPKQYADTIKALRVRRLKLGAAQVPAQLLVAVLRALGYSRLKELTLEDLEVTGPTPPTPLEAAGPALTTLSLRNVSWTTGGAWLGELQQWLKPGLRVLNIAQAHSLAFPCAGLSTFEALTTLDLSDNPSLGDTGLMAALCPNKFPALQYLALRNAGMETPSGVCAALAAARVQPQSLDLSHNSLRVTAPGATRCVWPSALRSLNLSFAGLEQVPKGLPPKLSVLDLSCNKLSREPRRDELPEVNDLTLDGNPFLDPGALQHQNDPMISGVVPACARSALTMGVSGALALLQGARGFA

UniProt P08571, sequence (P08571 20-345 C187Y limits assumed): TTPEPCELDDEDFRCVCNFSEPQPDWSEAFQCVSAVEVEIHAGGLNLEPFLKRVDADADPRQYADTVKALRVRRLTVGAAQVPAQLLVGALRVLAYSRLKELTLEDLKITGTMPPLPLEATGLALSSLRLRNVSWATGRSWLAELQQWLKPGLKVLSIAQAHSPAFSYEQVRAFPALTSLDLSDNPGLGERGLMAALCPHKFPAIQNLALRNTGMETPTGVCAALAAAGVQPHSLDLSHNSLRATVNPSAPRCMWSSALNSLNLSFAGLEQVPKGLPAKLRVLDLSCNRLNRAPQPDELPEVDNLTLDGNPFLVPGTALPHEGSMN

IgG2b isotype non-specific mAb OX40 (antibody)
< 15%: inhibition of B cell activation (3H-TdR uptake, percent of response without mAb) [1] | inhibition of B cell activation (3H-TdR uptake, percent of response without mAb) [2] | inhibition of induction of mIg+ 70Z/3 cells (flow cytometry) [2]
